{"source": "paper PMC4402133", "test_in_all_cases": "native gel or EMSA", "key": {"[1]": {"molecular_target": "pPL-163 nascent chain (bovine) (UniProt P01239)"}, "[2]": {"molecular_target": "pPL-188 nascent chain (bovine) (UniProt P01239)"}, "[3]": {"molecular_target": "pPL-223 nascent chain (bovine) (UniProt P01239)"}, "[4]": {"molecular_target": "pPL^45-Zn-163 nascent chain (bovine | S. cerevisiae) (UniProt P01239)"}}, "data": [{"substance": "RAMP complex C (~500 kD Sec61/62/63 complex) (from UniProt P38377 1-476; P82009 1-39; P82008 1-33; Q05052 33-445)", "values": [{"measurement": "percent of nascent chains in complex C", "setting": "[1]", "value": 2, "unit": "%"}, {"measurement": "percent of nascent chains retained in complex C after 1 hour at 24°C", "setting": "[1]", "value": 88, "unit": "%"}, {"measurement": "percent of nascent chains in complex C", "setting": "[2]", "value": 2, "unit": "%"}, {"measurement": "percent of nascent chains in complex C", "setting": "[3]", "value": 5, "unit": "%"}, {"measurement": "percent of nascent chains retained in complex C after 1 hour at 24°C", "setting": "[4]", "value": 95, "unit": "%"}]}]}
